Results taken from patent publication US6423500 (SCHERING, dated 2002).
Blank lines part the entries; values can stand above or below the binder they belong to.

Columns and labels:
mouse IL-10 receptor [1] = target: T1, mouse IL-10 receptor (mouse, UniProt Q61727 17-575); assay: FACS competition against FLAG-mIL-10 on MC/9 and J774 cells
T1 construct: Expressed on transfected COS7 cells; the native receptor on mouse cell lines (MC/9, J774, WEHI 265.1) is written as this same molecule; also called mIL-10R; mouse IL-10 receptor component
T1 sequence: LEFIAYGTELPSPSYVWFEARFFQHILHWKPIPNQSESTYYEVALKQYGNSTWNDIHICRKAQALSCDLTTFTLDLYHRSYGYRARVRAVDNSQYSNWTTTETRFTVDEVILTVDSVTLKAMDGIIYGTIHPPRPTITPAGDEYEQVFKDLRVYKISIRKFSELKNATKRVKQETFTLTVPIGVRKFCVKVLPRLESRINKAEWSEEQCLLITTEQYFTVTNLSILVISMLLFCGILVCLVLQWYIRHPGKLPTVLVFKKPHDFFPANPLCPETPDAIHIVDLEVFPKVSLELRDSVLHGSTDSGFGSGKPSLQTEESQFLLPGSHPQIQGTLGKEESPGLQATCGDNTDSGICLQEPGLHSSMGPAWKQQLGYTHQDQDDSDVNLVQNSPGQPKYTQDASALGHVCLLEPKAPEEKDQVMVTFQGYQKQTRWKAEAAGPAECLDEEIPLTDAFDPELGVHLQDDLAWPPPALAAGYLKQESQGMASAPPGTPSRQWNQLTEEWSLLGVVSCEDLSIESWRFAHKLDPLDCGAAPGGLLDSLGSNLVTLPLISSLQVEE

human IL-10 receptor [2] = target: T2, human IL-10 receptor (human, UniProt Q13651 22-578); assay: saturation binding of iodinated hIL-10 to JY cells, Scatchard analysis
T2 construct: Expressed on transfected COS7 cells and Ba/F3 (Ba8.1) cells; The native IL-10 receptor on human cell lines (JY, TF-1, BJAB, Ramos, BH5) is written as this same molecule; also called hIL-10R; human IL-10 receptor component
T2 sequence: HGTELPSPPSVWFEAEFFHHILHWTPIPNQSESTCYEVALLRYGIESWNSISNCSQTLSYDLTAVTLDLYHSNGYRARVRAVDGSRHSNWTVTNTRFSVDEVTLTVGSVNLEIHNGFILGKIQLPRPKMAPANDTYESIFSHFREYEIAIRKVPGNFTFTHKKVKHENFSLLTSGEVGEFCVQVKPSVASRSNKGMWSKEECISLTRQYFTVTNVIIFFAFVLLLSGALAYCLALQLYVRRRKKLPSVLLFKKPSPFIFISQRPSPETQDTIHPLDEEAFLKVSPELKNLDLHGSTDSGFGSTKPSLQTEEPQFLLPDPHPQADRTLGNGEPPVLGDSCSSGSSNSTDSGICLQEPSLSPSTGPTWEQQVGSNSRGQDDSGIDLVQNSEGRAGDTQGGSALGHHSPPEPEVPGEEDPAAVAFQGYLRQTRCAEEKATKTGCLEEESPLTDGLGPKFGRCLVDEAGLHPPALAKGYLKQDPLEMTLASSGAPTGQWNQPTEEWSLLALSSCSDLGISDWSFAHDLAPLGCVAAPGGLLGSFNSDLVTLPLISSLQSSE
Protocol: (§1) Scatchard analysis was performed on the data points obtained using the EBDA Program (Elsevier-Biosoft, Cambridge, U.K.). Antibody inhibition was performed under the above binding conditions but with the addition of a 100-fold molar excess of each of the indicated monoclonal antibodies. Cytokine specificity was determined under similar conditions but with the addition of 500-fold molar excess of the cytokines indicated.

human IL-10 receptor [3] = target: T2, human IL-10 receptor; assay: Scatchard analysis of 125I-hIL-10 binding to Ba8.1 cells, repeat experiments
Description: (§2) Values for Kd and receptor number were obtained by Scatchard analysis (23, 33, 34).

human IL-10 receptor [4] = target: T2, human IL-10 receptor; assay: saturation binding of iodinated hIL-10 to JY cells, Scatchard analysis (EBDA)
Protocol: as §1

mouse IL-10 receptor [5] = target: T1, mouse IL-10 receptor; assay: saturation binding of iodinated hIL-10 to MC/9 cells, Scatchard analysis (EBDA)
Protocol: as §1

[6] = target: IL-10 receptors on JY and MC/9 cells; assay: saturation binding of iodinated hIL-10 to JY and MC/9 cells, several independent experiments
human IL-10 receptor [7] = target: T2, human IL-10 receptor; assay: Scatchard analysis of 125I-hIL-10 binding to Ba8.1 cells (Ba/F3 expressing hIL-10R), experiment shown
Description: as §2

human IL-10 receptor [8] = target: T2, human IL-10 receptor; assay: saturation binding of iodinated hIL-10 to COS7 cells transfected with human clone SW8.1, Scatchard plot
Protocol: (§3) Binding assays were performed. […] For FIGS. 16 and 17, the highest concentration was 1 nM. Background was determined by performing binding at 500-fold molar excess. Points represent averages of duplicates.

mouse IL-10 receptor [9] = target: T1, mouse IL-10 receptor; assay: saturation binding of iodinated hIL-10 to COS7 cells transfected with mouse clone m3.14, Scatchard plot
Protocol: as §3

binding result (mouse IL-10 receptor [1]): binds
B1: mouse IL-10 (ligand, UniProt P18893 19-178, looked up)
chain: SRGQYSREDNNCTHFPVGQSHMLLELRTAFSQVKTFFQTKDQLDNILLTDSLMQDFKGYLGCQALSEMIQFYLVEVMPQAEKHGPEIKEHLNSLGEKLKTLRMRLRRCHRFLPCENKSKAVEQVKSDFNKLQDQGVYKAMNEFDIFINCIEAYMMIKMKS
notes: mature; also called mIL-10; murine IL-10

Kd (human IL-10 receptor [2]): ~150 pM
Kd (human IL-10 receptor [3]): 200 to 250 pM
Kd (human IL-10 receptor [4]): 140 pM
Kd (mouse IL-10 receptor [5]): 49 pM
Kd [6]: 50 to 170 pM
Kd (human IL-10 receptor [7]): ~250 pM
Kd (human IL-10 receptor [8]): 120 pM
Kd (mouse IL-10 receptor [9]): 83 pM
B2: human IL-10 (ligand, UniProt P22301 19-178, looked up)
chain: SPGQGTQSENSCTHFPGNLPNMLRDLRDAFSRVKTFFQMKDQLDNLLLKESLLEDFKGYLGCQALSEMIQFYLEEVMPQAENQDPDIKAHVNSLGENLKTLRLRLRRCHRFLPCENKSKAVEQVKNAFNKLQEKGIYKAMSEFDIFINYIEAYMTMKIRN
modifications: radioiodinated (125I, lactoperoxidase method) where used as labeled ligand; positions not given
notes: mature; Labeled and unlabeled hIL-10 are treated as one molecule; also called hIL-10; human interleukin-10
